Patent publication US20210198368A1 (Novartis, published 2021)

T1: human CLL1 expressed on cancer cell lines HL60 and U937 (human, UniProt Q5QGZ9 1-265)
T1 sequence (looked up): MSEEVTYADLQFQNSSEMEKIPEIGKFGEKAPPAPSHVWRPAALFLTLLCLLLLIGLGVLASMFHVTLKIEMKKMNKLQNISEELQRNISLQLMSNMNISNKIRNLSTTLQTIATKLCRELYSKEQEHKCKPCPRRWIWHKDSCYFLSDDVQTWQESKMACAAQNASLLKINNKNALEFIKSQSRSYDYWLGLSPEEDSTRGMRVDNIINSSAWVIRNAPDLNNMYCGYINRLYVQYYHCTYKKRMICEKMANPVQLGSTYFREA


target: T1, human CLL1 expressed on cancer cell …; assay: cell-based or functional assay

Row | EC50 (nM), NFAT U937 (T-cell activation, Jurkat NFAT luciferase reporter assay) | Binder | EC50 (nM), Killing HL60 (T-cell mediated killing of the CLL1-positive cancer cell line)
1 | 0.08 nM | CD3 × CLL1_11 (bispecific antibody) chain 1: QVQLVQSGGGVVQPGRSLRLSCKASGYTFTRYTMHWVRQAPGKGLEWIGYINPSRGYTNYNQKVKDRFTISRDNSKNTAFLQMDSLRPEDTGVYFCARYYDDHYSLDYWGQGTPVTVSSGGGGSGGGKSKKGGSGGGGSDIQMTQSPSSLSASVGDRVTITCSASSSVSYMNWYQQTPGKAPKRWIYDTSKLASGVPSRFSGSGSGTDYTFTISSLQPEDIATYYCQQWSSNPFTFGQGTKLQITGGGGSDKTHTCPPCPAPELLGGPSVFLFPPKPKDTLMISRTPEVTCVVVAVSHEDPEVKFNWYVDGVEVHNAKTKPREEQYNSTYRVVSVLTVLHQDWLNGKEYKCKVSNKALAAPIEKTISKAKGQPREPQVCTLPPSRDELTKNQVSLSCAVKGFYPSDIAVEWESNGQPENNYKTTPPVLDSDGSFFLVSKLTVDKSRWQQGNVFSCSVMHEALHNHYTQKSLSLSPGK chain 2: EVQLVQSGGGVVRSGRSLRLSCAASGFTFNSYGLHWVRQAPGKGLEWVALIEYDGSNKYYGDSVKGRFTISRDKSKSTLYLQMDNLRAEDTAVYYCAREGNEDLAFDIWGQGTLVTVSSGGGGSGGGGSGGGGSGGGGSEIVLTQSPSSLSASVGDRVTITCQASQFIKKNLNWYQHKPGKAPKLLIYDASSLQTGVPSRFSGNRSGTTFSFTISSLQPEDVATYYCQQHDNLPLTFGGGTKVEIKGGGGSGSDKTHTCPPCPAPELLGGPSVFLFPPKPKDTLMISRTPEVTCVVVAVSHEDPEVKFNWYVDGVEVHNAKTKPREEQYNSTYRVVSVLTVLHQDWLNGKEYKCKVSNKALAAPIEKTISKAKGQPREPQVYTLPPCRDELTKNQVSLWCLVKGFYPSDIAVEWESNGQPENNYKTTPPVLDSDGSFFLYSKLTVDKSRWQQGNVFSCSVMHEALHNHYTQKSLSLSPGK | 0.03 nM
2 | 2.16 nM | CD3 × CLL1_13 (bispecific antibody) chain 1: QVQLVQSGGGVVQPGRSLRLSCKASGYTFTRYTMHWVRQAPGKGLEWIGYINPSRGYTNYNQKVKDRFTISRDNSKNTAFLQMDSLRPEDTGVYFCARYYDDHYSLDYWGQGTPVTVSSGGGGSGGGKSKKGGSGGGGSDIQMTQSPSSLSASVGDRVTITCSASSSVSYMNWYQQTPGKAPKRWIYDTSKLASGVPSRFSGSGSGTDYTFTISSLQPEDIATYYCQQWSSNPFTFGQGTKLQITGGGGSDKTHTCPPCPAPELLGGPSVFLFPPKPKDTLMISRTPEVTCVVVAVSHEDPEVKFNWYVDGVEVHNAKTKPREEQYNSTYRVVSVLTVLHQDWLNGKEYKCKVSNKALAAPIEKTISKAKGQPREPQVCTLPPSRDELTKNQVSLSCAVKGFYPSDIAVEWESNGQPENNYKTTPPVLDSDGSFFLVSKLTVDKSRWQQGNVFSCSVMHEALHNHYTQKSLSLSPGK chain 2: QVQLVQSGAEVKKSGASVKVSCKASGYPFTGYYIQWVRQAPGQGLEWMGWIDPNSGNTGYAQKFQGRVTMTRNTSISTAYMELSSLRSEDTAVYYCASDSYGYYYGMDVWGQGTLVTVSSGGGGSGGGGSGGGGSGGGGSDIQMTQSPSSLSASVGDRVTFTCRASQGISSALAWYQQKPGKPPKLLIYDASSLESGVPSRFSGSGSGTDFTLTISSLQPEDFATYYCQQFNNYPLTFGGGTKVEIKGGGGSGSDKTHTCPPCPAPELLGGPSVFLFPPKPKDTLMISRTPEVTCVVVAVSHEDPEVKFNWYVDGVEVHNAKTKPREEQYNSTYRVVSVLTVLHQDWLNGKEYKCKVSNKALAAPIEKTISKAKGQPREPQVYTLPPCRDELTKNQVSLWCLVKGFYPSDIAVEWESNGQPENNYKTTPPVLDSDGSFFLYSKLTVDKSRWQQGNVFSCSVMHEALHNHYTQKSLSLSPGK | 4.24 nM
3 |  | CD3 × CLL1_07 (bispecific antibody) chain 1: QVQLVQSGGGVVQPGRSLRLSCKASGYTFTRYTMHWVRQAPGKGLEWIGYINPSRGYTNYNQKVKDRFTISRDNSKNTAFLQMDSLRPEDTGVYFCARYYDDHYSLDYWGQGTPVTVSSGGGGSGGGKSKKGGSGGGGSDIQMTQSPSSLSASVGDRVTITCSASSSVSYMNWYQQTPGKAPKRWIYDTSKLASGVPSRFSGSGSGTDYTFTISSLQPEDIATYYCQQWSSNPFTFGQGTKLQITGGGGSDKTHTCPPCPAPELLGGPSVFLFPPKPKDTLMISRTPEVTCVVVAVSHEDPEVKFNWYVDGVEVHNAKTKPREEQYNSTYRVVSVLTVLHQDWLNGKEYKCKVSNKALAAPIEKTISKAKGQPREPQVCTLPPSRDELTKNQVSLSCAVKGFYPSDIAVEWESNGQPENNYKTTPPVLDSDGSFFLVSKLTVDKSRWQQGNVFSCSVMHEALHNHYTQKSLSLSPGK chain 2: QVQLVESGGGLVQPGGSLRLSCAASGFTFSSYWMSWVRQAPGKGLEWVANINEDGSAKFYVDSVKGRFTISRDNAKNSLYLQMNSLRAEDTAVYFCARDLRSGRYWGQGTLVTVSSGGGGSGGGGSGGGGSEIVLTQSPGTLSLSPGGRATLSCRASQSISGSFLAWYQQKPGQAPRLLIYGASSRATGIPDRFSGSGSGTDFTLTISRLEPEDFAVYYCQQYGSSPPTFGLGTKLEIKGGGGSDKTHTCPPCPAPELLGGPSVFLFPPKPKDTLMISRTPEVTCVVVAVSHEDPEVKFNWYVDGVEVHNAKTKPREEQYNSTYRVVSVLTVLHQDWLNGKEYKCKVSNKALAAPIEKTISKAKGQPREPQVYTLPPCRDELTKNQVSLWCLVKGFYPSDIAVEWESNGQPENNYKTTPPVLDSDGSFFLYSKLTVDKSRWQQGNVFSCSVMHEALHNHYTQKSLSLSPGK | 44.3 nM
4 | 0.96 nM | CD3 × CLL1_06 (bispecific antibody) chain 1: QVQLVQSGGGVVQPGRSLRLSCKASGYTFTRYTMHWVRQAPGKGLEWIGYINPSRGYTNYNQKVKDRFTISRDNSKNTAFLQMDSLRPEDTGVYFCARYYDDHYSLDYWGQGTPVTVSSGGGGSGGGKSKKGGSGGGGSDIQMTQSPSSLSASVGDRVTITCSASSSVSYMNWYQQTPGKAPKRWIYDTSKLASGVPSRFSGSGSGTDYTFTISSLQPEDIATYYCQQWSSNPFTFGQGTKLQITGGGGSDKTHTCPPCPAPELLGGPSVFLFPPKPKDTLMISRTPEVTCVVVAVSHEDPEVKFNWYVDGVEVHNAKTKPREEQYNSTYRVVSVLTVLHQDWLNGKEYKCKVSNKALAAPIEKTISKAKGQPREPQVCTLPPSRDELTKNQVSLSCAVKGFYPSDIAVEWESNGQPENNYKTTPPVLDSDGSFFLVSKLTVDKSRWQQGNVFSCSVMHEALHNHYTQKSLSLSPGK chain 2: EVQLVESGGGLVKPGGSLRLSCAASGFTFSSYSMNWVRQAPGKGLEWVSSISSSSSYIYYADSVKGRFTISRDNAKNSLYLQMNSLRAEDTAVYYCARDPSSSGSYYMEDSYYYGMDVWGQGTTVTVSSGGGGSGGGGSGGGGSNFMLTQPHSVSESPGKTVTISCTGSSGSIASNYVQWYQQRPGSAPTTVIYEDNQRPSGVPDRFSGSIDSSSNSASLTISGLKTEDEADYYCQSYDSSNQVVFGGGTKLTVLGGGGSGSDKTHTCPPCPAPELLGGPSVFLFPPKPKDTLMISRTPEVTCVVVAVSHEDPEVKFNWYVDGVEVHNAKTKPREEQYNSTYRVVSVLTVLHQDWLNGKEYKCKVSNKALAAPIEKTISKAKGQPREPQVYTLPPCRDELTKNQVSLWCLVKGFYPSDIAVEWESNGQPENNYKTTPPVLDSDGSFFLYSKLTVDKSRWQQGNVFSCSVMHEALHNHYTQKSLSLSPGK | 1.27 nM
5 | 1.74 nM | CD3 × CLL1_09 (bispecific antibody) chain 1: QVQLVQSGGGVVQPGRSLRLSCKASGYTFTRYTMHWVRQAPGKGLEWIGYINPSRGYTNYNQKVKDRFTISRDNSKNTAFLQMDSLRPEDTGVYFCARYYDDHYSLDYWGQGTPVTVSSGGGGSGGGKSKKGGSGGGGSDIQMTQSPSSLSASVGDRVTITCSASSSVSYMNWYQQTPGKAPKRWIYDTSKLASGVPSRFSGSGSGTDYTFTISSLQPEDIATYYCQQWSSNPFTFGQGTKLQITGGGGSDKTHTCPPCPAPELLGGPSVFLFPPKPKDTLMISRTPEVTCVVVAVSHEDPEVKFNWYVDGVEVHNAKTKPREEQYNSTYRVVSVLTVLHQDWLNGKEYKCKVSNKALAAPIEKTISKAKGQPREPQVCTLPPSRDELTKNQVSLSCAVKGFYPSDIAVEWESNGQPENNYKTTPPVLDSDGSFFLVSKLTVDKSRWQQGNVFSCSVMHEALHNHYTQKSLSLSPGK chain 2: QVQLVQSGAEVKEPGASVKVSCKAPANTFSDHVMHWVRQAPGQRFEWMGYIHAANGGTHYSQKFQDRVTITRDTSANTVYMDLSSLRSEDTAVYYCARGGYNSDAFDIWGQGTMVTVSSGGGGSGGGGSGGGGSGGGGSDIVMTQSPSSVSASVGDRVTITCRASQDISSWLAWYQQKPGKAPKLLIYAASSLQSGVPSRFNGSGSGTDFTLTISSLQPEDFATYYCQQSYSTPLTFGGGTKVEIKGGGGSGSDKTHTCPPCPAPELLGGPSVFLFPPKPKDTLMISRTPEVTCVVVAVSHEDPEVKFNWYVDGVEVHNAKTKPREEQYNSTYRVVSVLTVLHQDWLNGKEYKCKVSNKALAAPIEKTISKAKGQPREPQVYTLPPCRDELTKNQVSLWCLVKGFYPSDIAVEWESNGQPENNYKTTPPVLDSDGSFFLYSKLTVDKSRWQQGNVFSCSVMHEALHNHYTQKSLSLSPGK | 0.36 nM
6 |  | CD3 × CLL1_02 (bispecific antibody) chain 1: QVQLVQSGGGVVQPGRSLRLSCKASGYTFTRYTMHWVRQAPGKGLEWIGYINPSRGYTNYNQKVKDRFTISRDNSKNTAFLQMDSLRPEDTGVYFCARYYDDHYSLDYWGQGTPVTVSSGGGGSGGGKSKKGGSGGGGSDIQMTQSPSSLSASVGDRVTITCSASSSVSYMNWYQQTPGKAPKRWIYDTSKLASGVPSRFSGSGSGTDYTFTISSLQPEDIATYYCQQWSSNPFTFGQGTKLQITGGGGSDKTHTCPPCPAPELLGGPSVFLFPPKPKDTLMISRTPEVTCVVVAVSHEDPEVKFNWYVDGVEVHNAKTKPREEQYNSTYRVVSVLTVLHQDWLNGKEYKCKVSNKALAAPIEKTISKAKGQPREPQVCTLPPSRDELTKNQVSLSCAVKGFYPSDIAVEWESNGQPENNYKTTPPVLDSDGSFFLVSKLTVDKSRWQQGNVFSCSVMHEALHNHYTQKSLSLSPGK chain 2: EVQLVESGGGVVQPGGSLRLSCAASGFTFDDYAMHWVRQAPGKGLEWVSLISGDGGSTYYADSVKGRFTISRDNSKNTLYLQMNSLRVEDTAVYYCARVFDSYYMDVWGKGTTVTVSSGGGGSGGGGSGSGGSEIVLTQSPLSLPVTPGQPASISCRSSQSLVYTDGNTYLNWFQQRPGQSPRRLIYKVSNRDSGVPDRFSGSGSDTDFTLKISRVEAEDVGIYYCMQGTHWSFTFGQGTRLEIKGGGGSDKTHTCPPCPAPELLGGPSVFLFPPKPKDTLMISRTPEVTCVVVAVSHEDPEVKFNWYVDGVEVHNAKTKPREEQYNSTYRVVSVLTVLHQDWLNGKEYKCKVSNKALAAPIEKTISKAKGQPREPQVYTLPPCRDELTKNQVSLWCLVKGFYPSDIAVEWESNGQPENNYKTTPPVLDSDGSFFLYSKLTVDKSRWQQGNVFSCSVMHEALHNHYTQKSLSLSPGK | > 300 nM
